For experiment [1], the target named is T1, GST-ABI-1 (glutathione-S-transferase fused to the N terminus of full-length C. elegans ABI-1) (C. elegans, UniProt Q10929 1-469).
T1 construct: ABI-1, C. elegans homolog of the Abi proteins; full-length abi-1 from cDNA yk1204a12, bp 47-1,456; Cloned in pDEST15 (Gateway). bp 47-1,456 is 1,410 bp, i.e. 469 codons and a stop if the stop codon is included; not shown: GST, N-terminal, kept
T1 sequence (looked up): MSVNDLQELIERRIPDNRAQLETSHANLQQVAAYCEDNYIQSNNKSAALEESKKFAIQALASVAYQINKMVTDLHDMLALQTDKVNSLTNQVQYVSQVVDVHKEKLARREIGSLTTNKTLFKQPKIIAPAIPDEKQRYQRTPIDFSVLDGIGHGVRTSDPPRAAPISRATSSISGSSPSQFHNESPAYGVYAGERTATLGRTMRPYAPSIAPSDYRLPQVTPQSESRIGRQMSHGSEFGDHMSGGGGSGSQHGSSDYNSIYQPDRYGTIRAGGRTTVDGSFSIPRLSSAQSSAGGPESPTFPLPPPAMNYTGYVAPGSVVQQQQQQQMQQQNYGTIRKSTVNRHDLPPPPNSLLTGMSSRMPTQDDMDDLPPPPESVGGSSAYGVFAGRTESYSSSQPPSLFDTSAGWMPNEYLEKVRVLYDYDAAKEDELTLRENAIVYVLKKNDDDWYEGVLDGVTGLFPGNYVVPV
The experiment is described as follows: pull-down; GST, GST-ABI or GST-ABIΔ on glutathione beads incubated with 25 μl of a 100 μl 35S-labelled in vitro transcription/translation reaction; 2 h at 4 °C in PBB2 (25 mM HEPES pH 7.6, 150 mM NaCl, 5 mM MgCl2, 0.1 mM EDTA, 0.1% Tween-20, 0.25% BSA); washes with 300 and 250 mM NaCl; SDS-PAGE, autoradiography, phosphorimager quantitation. To be noted: one partner purified.

Experiment [2] has as its target GST-ABI-1Δ (N-terminal GST fusion to the product of the abi-1(tm494) allele) (C. elegans) (UniProt Q10929). Described as above.

The record followed here is paper PMC2672617, “Abl Kinase Inhibits the Engulfment of Apopotic Cells in Caenorhabditis elegans” (PLoS Biology, 2009).

B1: ABL-1(112–611), N-terminal fragment of C. elegans ABL-1 (domain or fragment, UniProt P03949 112-611, looked up)
chain: SSSSSAPLFVALYDFHGVGEEQLSLRKGDQVRILGYNKNNEWCEARLYSTRKNDASNQRRLGEIGWVPSNFIAPYNSLDKYTWYHGKISRSDSEAILGSGITGSFLVRESETSIGQYTISVRHDGRVFHYRINVDNTEKMFITQEVKFRTLGELVHHHSVHADGLICLLMYPASKKDKGRGLFSLSPNAPDEWELDRSEIIMHNKLGGGQYGDVYEGYWKRHDCTIAVKALKEDAMPLHEFLAEAAIMKDLHHKNLVRLLGVCTHEAPFYIITEFMCNGNLLEYLRRTDKSLLPPIILVQMASQIASGMSYLEARHFIHRDLAARNCLVSEHNIVKIADFGLARFMKEDTYTAHAGAKFPIKWTAPEGLAFNTFSSKSDVWAFGVLLWEIATYGMAPYPGVELSNVYGLLENGFRMDGPQGCPPSVYRLMLQCWNWSPSDRPRFRDIHFNLENLISSNSLNDEVQKQLKKNNDKKLESDKRRSNVRERSDSKSRHSSHHD
modifications: labeled with 35S in vitro
notes: contains the SH3, SH2 and tyrosine kinase domains; Cloned in pDEST14 (Gateway) for expression in vitro; also called N-terminal half of ABL-1; source: in vitro translated (TNT T7 Quick Coupled Transcription/Translation system, Promega)
Consider B1, for which the “fold binding in the ABI-1 lane over the GST lane (phosphorimager)” value in experiment [1] came to 8 fold. The molecule further registered a fold less ABL-1(112–611) bound than by ABI-1 in experiment [2] of 3 fold.
